Conditions in all cases: protein: ivt; chain copies: 2; label: 32P
The target in series [1] is T1, Zta (BZLF1, ZEBRA, EB1) (Epstein-Barr virus (B95-8 strain), UniProt P03206 1-245). The experiment in a line: EMSA; CpG methylated; EMSA with wheat germ in vitro translated Zta and 32P-labelled ds oligonucleotides; buffer, salt, pH and temperature not given (as in ref 39). (In general: In EMSA bound probe runs differently from free probe, usually more slowly.)
Series [2] addresses T1, Zta (BZLF1, ZEBRA, EB1). Description: EMSA; unmethylated; class III; EMSA with wheat germ in vitro translated Zta and 32P-labelled ds oligonucleotides; buffer, salt, pH and temperature not given (as in ref 39).
For series [3], the target named is T1, Zta (BZLF1, ZEBRA, EB1). The experiment in a line: EMSA; EMSA with wheat germ in vitro translated Zta and 32P-labelled ds oligonucleotides; buffer, salt, pH and temperature not given (as in ref 39).

T1 sequence (P03206 whole entry): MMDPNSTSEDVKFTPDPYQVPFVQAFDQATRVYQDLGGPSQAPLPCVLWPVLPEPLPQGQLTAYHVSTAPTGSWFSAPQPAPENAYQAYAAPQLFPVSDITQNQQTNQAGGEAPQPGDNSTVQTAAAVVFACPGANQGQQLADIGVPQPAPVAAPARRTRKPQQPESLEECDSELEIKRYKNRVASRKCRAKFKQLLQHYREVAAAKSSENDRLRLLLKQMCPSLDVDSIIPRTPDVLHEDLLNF

B1: Rp (-114) / CpG5 O, methylated (dsDNA)
DNA 1: CACTCATACTTAAGCGATGCTGATGCA
DNA 2: TGCATCAGCATCGCTTAAGTATGAGTG
modifications: 5mC at CpG, both strands (M.SssI or synthesis)
On to B1, for which the binding result with Zta (BZLF1, ZEBRA, EB1) [1] is on record as “binds”.

B2: Rp (-114) / CpG5 O, unmethylated (dsDNA)
DNA 1: CACTCATACTTAAGCGATGCTGATGCA
DNA 2: TGCATCAGCATCGCTTAAGTATGAGTG
In the case of B2, the binding result with Zta (BZLF1, ZEBRA, EB1) [2] is “no binding”.

B3: Zp (-96) (dsDNA)
DNA 1: TAAATTTAGGTGTGTCTATGAGGTACA
DNA 2: TGTACCTCATAGACACACCTAAATTTA
For the molecule B3, in the series with Zta (BZLF1, ZEBRA, EB1) [3], the binding result is reported as “binds”.

The values above are taken from PMC3191170, “Epigenetic Control of Viral Life-Cycle by a DNA-Methylation Dependent Transcription Factor”.
